Results: US20130330346A1 (Novartis, published 2013)
Like-named read-outs stand apart in the source and are kept apart here. Ends that are not written are not given here.

T1: Human CXCR2 (human, UniProt P25025 1-360)
T1 sequence: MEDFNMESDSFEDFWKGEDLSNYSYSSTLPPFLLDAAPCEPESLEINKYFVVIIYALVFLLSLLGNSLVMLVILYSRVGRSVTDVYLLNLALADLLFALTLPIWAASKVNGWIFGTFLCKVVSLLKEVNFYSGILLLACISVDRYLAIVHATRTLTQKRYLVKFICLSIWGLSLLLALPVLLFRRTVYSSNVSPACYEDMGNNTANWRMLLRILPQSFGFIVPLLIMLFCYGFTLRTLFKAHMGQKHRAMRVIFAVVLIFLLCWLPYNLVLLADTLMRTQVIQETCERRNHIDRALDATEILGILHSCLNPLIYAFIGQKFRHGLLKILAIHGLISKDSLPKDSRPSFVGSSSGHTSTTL

T2: Cynomolgus CXCR2 (cynomolgus, UniProt Q28519 3-353 (rhesus entry))
T2 chain: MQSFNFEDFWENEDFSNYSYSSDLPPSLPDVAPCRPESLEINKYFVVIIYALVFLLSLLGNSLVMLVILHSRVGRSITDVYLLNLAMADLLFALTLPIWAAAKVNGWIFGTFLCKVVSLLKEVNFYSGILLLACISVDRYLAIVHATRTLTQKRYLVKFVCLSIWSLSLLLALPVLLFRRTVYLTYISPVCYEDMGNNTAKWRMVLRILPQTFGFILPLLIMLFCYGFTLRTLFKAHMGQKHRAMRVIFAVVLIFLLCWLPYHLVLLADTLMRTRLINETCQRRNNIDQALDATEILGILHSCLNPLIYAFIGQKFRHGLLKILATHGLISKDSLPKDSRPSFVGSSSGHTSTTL

T3: Human 1to19 peptide (human)
T3 construct: First 19 N-terminal amino acids of human CXCR2, captured on neutravidin; also called human CXCR2 1 to19 peptide; 1-19 Nter peptide
T3 peptide: MEDFNMESDSFEDFWKGED-biotin

B1: CXCR20030 (other)
chain: EVQLVESGGGLVQAGGSLRLSCAASGRTFSDYAMGWFRQAPGKEREFVAAITWNGGRVFYTASVKGRFTISRDNAKNTMYLQMNSLKPEDTAVYYCAADKDRRTDYLGHPVAYWGQGTQVTVSSGGGGSGGGGSGGGGSGGGGSGGGGSGGGGSGGGGSEVQLVESGGGLVQAGGSLTLSCAVSGSTFRINTMGWYRRAPGKQRELVAARDRGGYINYVDSVKGRFTVSRDNAKPTMYLQMNSLKPEDTAVYYCHAGTQDRTGRNFDRWGQGTQVTVSS
notes: Biparatopic: two VHH joined by a GlySer linker; also called 163D2-35GS-54B12; 163D2-54B12; not shown: C-terminal c-myc tag and His6 tag coded by pAX100
B2: 137B7 (VHH)
VHH: EVQLVESGGGLVQPGGSVRLSCVASGIIFRLSALGWTRQGPGKAREWVAGINSDGTTNYADPVKGRFTISRDNAKNTIYLHMDMLKPEDTAVYYCASGKYRGQGTQVTVSS
notes: Tested as periplasmic extract (pAX50) and as purified His6-tagged protein (pAX100); also called 137B07; not shown: C-terminal c-myc tag and His6 tag coded by the vector
B3: 137A8 (VHH)
VHH: EVQLVESGGGLVQPGGSLRLSCAASGSTLAYYTVGWFRRAPGKEREGISCISSSDGSTYYADSVKGRFTISRDNAKNTVYLQMNSLKPEDTAVYYCAADRRTDCKKGRVGSGSWGQGTQVTVSS
notes: Tested as periplasmic extract only; also called 137A08; not shown: C-terminal c-myc tag and His6 tag coded by the vector
B4: CXCR20028 (other)
chain: EVQLVESGGGLVQPGGSLRLSCVASGSIVRINTMGWYRQTPGKQRELVADITSGGNINYIDAVKGRFTISRDNTKNTVYLQMNSLKPEDTAVYYCNAEIVVLVGVWTQRARTGNYWGQGTQVTVSSGGGGSGGGGSGGGGSGGGGSGGGGSGGGGSGGGGSEVQLVESGGGLVQAGGSLTLSCAVSGSTFRINTMGWYRRAPGKQRELVAARDRGGYINYVDSVKGRFTVSRDNAKPTMYLQMNSLKPEDTAVYYCHAGTQDRTGRNFDRWGQGTQVTVSS
notes: Biparatopic: two VHH joined by a GlySer linker; also called 97A9-35GS-54B12; 97A9-54B12; not shown: C-terminal c-myc tag and His6 tag coded by pAX100
B5: 139A8 (VHH)
VHH: EVQLVESGGGLVQAGGSLRLSCAASGRSFSRSAMGWLRQAPGKEREFVAGISWGGDNSYYADSVKGRFTISRDNAKNTVSLQMNSLKPQDTAVYYCAARYRGGAAVAGWEYWGQGTQVTVSS
notes: Tested as periplasmic extract only; also called 139A08; not shown: C-terminal c-myc tag and His6 tag coded by the vector
B6: CXCR20034 (bispecific antibody)
chain: EVQLVESGGGLVQAGGSLRLSCAASGRTFSDYAMGWFRQAPGKEREFVAAITWNGGRVFYTASVKGRFTISRDNAKNTMYLQMNSLKPEDTAVYYCAADKDRRTDYLGHPVAYWGQGTQVTVSSGGGGSGGGGSGGGGSGGGGSGGGGSGGGGSGGGGSEVQLVESGGELVQPGGSLRLSCAASGSILTINAMGWYRQAPGKQRELVVRRTRGGSTTYQDSVKGRFTISADIAKKTMYLQMNSLKPEDTAVYYCMLDDRGGVYWGQGTQVTVSS
notes: Biparatopic: two VHH joined by a GlySer linker; also called 163D2-35GS-2B2; 163D2-2B2; not shown: C-terminal c-myc tag and His6 tag coded by pAX100
B7: CXCR20033 (bispecific antibody)
chain: EVQLVESGGGLVQPGGSLRLSCVASGRIFSSNAMGWFRQAPGKEREFVAAITWRSGGSAYYADSAKGRFTISRDNAKNTVYLQMNSLKPEDTAVYYCAAGGSSWLSFPPDYWGQGTQVTVSSGGGGSGGGGSGGGGSGGGGSGGGGSGGGGSGGGGSEVQLVESGGELVQPGGSLRLSCAASGSILTINAMGWYRQAPGKQRELVVRRTRGGSTTYQDSVKGRFTISADIAKKTMYLQMNSLKPEDTAVYYCMLDDRGGVYWGQGTQVTVSS
notes: Biparatopic: two VHH joined by a GlySer linker; also called 163E3-35GS-2B2; 163E3-2B2; not shown: C-terminal c-myc tag and His6 tag coded by pAX100

What was measured:
[1] = target: T1, Human CXCR2; assay: cell-based or functional assay
[2] = target: T2, Cynomolgus CXCR2; assay: cell-based or functional assay
[3] = target: T1, Human CXCR2; assay: cell-based or functional assay; remark: listed apart in the source
[4] = target: T1, Human CXCR2; assay: cell-based or functional assay; remark: listed apart in the source
[5] = target: T2, Cynomolgus CXCR2; assay: cell-based or functional assay
[6] = target: T1, Human CXCR2; assay: FACS competition vs 3 nM FMAT-Blue Gro-α
Procedure: (§1) Multivalent anti-CXCR2Nanobodies were titrated against 3 nM FMAT-Blue-labeled Gro-α in the FACS ligand competition assay on human and cynomolgus CXCR2 (Table 14). On human CXCR2, blocking potencies range between double digit nM and sub-nM whereas on cynomolgus CXCR2, they range between single and double digit nM.

[7] = target: T2, Cynomolgus CXCR2; assay: FACS competition vs 3 nM FMAT-Blue Gro-α
Procedure: as §1

[8] = target: T1, Human CXCR2; assay: cell-based or functional assay; remark: listed apart in the source
[9] = target: T1, Human CXCR2; assay: FACS competition vs 3 nM FMAT-Blue Gro-α; remark: listed apart in the source
Procedure: Purified monovalent anti-CXCR2Nanobodies were titrated against 3 nM FMAT-Blue-labeled Gro-α in the FACS ligand competition assay on human and cynomolgus CXCR2 (Table 10). On human CXCR2, blocking potencies range between double digit nM and sub-nM whereas on cynomolgus CXCR2, they range between single and double digit nM.

[10] = target: T1, Human CXCR2; assay: FACS, periplasmic extract vs FMAT Blue Gro-α
Procedure: Periplasmic extracts (as described above) were analyzed on FACS for competition with Gro-α in binding to human CXCR2. 2×10⁵ cells were incubated with a ½ dilution of periplasmic extracts in FACS buffer (PBS+10% fetal bovine serum (Sigma, F7524)) for 30 minutes at 4° C. Then, an equal volume of 6 nM of FMAT Blue-labeled human Gro-α in FACS buffer was added and incubation was continued for another 30 minutes at 4° C. in the dark. Cells were then washed three times in FACS buffer and finally resuspended in FACS buffer. Dead cells were stained with propidium iodide (Sigma, P4170). Samples were then analyzed on a FACSarray (BD Biosciences).

[11] = target: T3, Human 1to19 peptide; assay: ELISA, periplasmic extract on biotinylated peptide
Procedure: In another setup, periplasmic extracts were analyzed for binding to human 1 to 19 peptide by ELISA. MaxiSorb plates (Nunc, 430341) were coated for two hours with neutravidin followed by one hour blocking (PBS, 1% casein). Then 100 nM biotinylated human 1 to 19 peptide was added to these plates for one hour (PBS, 0.1% casein, 0.05% tween20) followed by one hour incubation with 10-fold dilutions of periplasmic extracts. Unbound periplasmic extracts were washed away (PBS supplemented with 0.05% tween20) and bound Nanobodies were detected using mouse anti-myc (Roche, 11667149001) followed by rabbit anti-mouse-HRP conjugate (Dakocytomation, P0260). Table 8 summarizes the ratios of the binding signals of anti-CXCR2Nanobodies over an irrelevant control Nanobody.

Binder | FLIPR % inhibition of max [1] [%] | FLIPR IC50 (GRO-α induced calcium release) [1] [nM] | FLIPR % inhibition of max [2] [%] | FLIPR IC50 (GRO-α induced calcium release) [2] [nM] | [35S]GTPγS % inhibition of max (GRO-α) [3] [%] | [35S]GTPγS IC50 (GRO-α) [3] [nM] | Human WBSC IC50 (rhGROα) [4] [nM] | Cynomologus WBSC IC50 (rhGROα) [5] [nM] | % inhibition of max [6] [%] | IC50 [6] [nM] | % inhibition of max [7] [%] | IC50 [7] [nM] | FACS Gro-α competition (% inhibition) [10] [%] | ratio of binding signal relative to blank control [11] [ratio] | also measured
B1 | 100 | 11.8 | 100 | 6.36 | 100 | 1.02 | 0.215 | 0.56 | 99.5 | 0.786 | 98.5 | 1.74 | – | – | [35S]GTPγS % inhibition of max (ENA-78) [3]: 100%; [35S]GTPγS % inhibition of max (IL-8) [3]: 100%; [35S]GTPγS IC50 (ENA-78) [3]: 1.3 nM; [35S]GTPγS IC50 (IL-8) [3]: 1.09 nM
B2 | – | – | – | – | – | – | – | – | – | – | – | – | 90.3 | 1 | FLIPR % inhibition max [8]: 100%; FLIPR IC50 (GRO-α induced calcium release) [8]: 6.71 nM; % inhibition of max [9]: 93.5%; IC50 [9]: 1.11 nM
B3 | – | – | – | – | – | – | – | – | – | – | – | – | 55.8 | 1.2 | –
B4 | 100 | 21.9 | 100 | 17 | 100 | 1.38 | 0.43 | 1.72 | 98.5 | 1.63 | 96 | 3.8 | – | – | –
B5 | – | – | – | – | – | – | – | – | – | – | – | – | 78.5 | 1 | –
B6 | 100 | 11.8 | 100 | 9.47 | 100 | 0.995 | 0.29 | 0.44 | 100 | 0.8 | 99 | 2.55 | – | – | Human Chemotaxis IC50 (rhGROα) [4]: 0.143 nM
B7 | 100 | 17.9 | 100 | 4.46 | 100 | 1.01 | 0.345 | 0.42 | 100 | 0.65 | 99 | 2.2 | – | – | Human Chemotaxis IC50 (rhGROα) [4]: 0.15 nM
